Reference: patent US20190247546A1, “METHOD FOR FORMING A FUNCTIONAL NETWORK OF HUMAN NEURONAL AND GLIAL CELLS” (LEIBNIZ-INSTITUT FÜR POLYMERFORSCHUNG DRESDEN E.V., priority 2016, published 2019)
Entries after “also recorded” stand apart in the source; their conditions may differ.

Columns and labels:
[1] = tested on: cells embedded in PEG-heparin hydrogel, transfected with calcium sensor; test: Response to neurotransmitter glutamate, calcium sensor fluorescence in hydrogel-embedded cells; assay type: cell-based, human; conditions: after addition of glutamate
Text: FIG. 5 depicts the results of the measurement of the total fluorescence intensities in the case of addition of the neurotransmitter glutamate. […] The cells in image A2 are embedded in a PEG-heparin hydrogel system before the addition of the neurotransmitter glutamate. Images A3 and A4 show a high magnification of a Gcampf6-transfected cell which is embedded in the PEG-heparin hydrogel system.

[2] = tested on: primary human cortical cells (PHCCs); test: Effect of IL-4 on Aβ42 toxicity, PHCCs in star-PEG-HEP hydrogels; assay type: cell-based
Description: To test whether IL-4 acts in humans in a similar manner as could be previously shown in zebrafish investigations for example, the abovementioned star-PEG-HEP hydrogels containing PHCCs were used. To this end, hydrogels containing embedded PHCCs were prepared and they were incubated with Aβ42, as already described. Each test setup contained a positive (with Aβ42) and a negative control group (without Aβ42) as well as an experimental group with Aβ42 and IL-4. In the experimental group, the star-PEG-HEP gels containing embedded PHCCs were cultured with Aβ42 and, at the same time, in the presence of 100 ng/ml IL-4 in the medium. After a three-week culturing phase, the samples were fixed and immunologically stained with respect to GFAP and SOX2 in order to investigate effects of IL-4 on the neural stem and progenitor cells. The nucleus dye DAPI was used in order to show entire cells. […] It can be concluded that the treatment with interleukin 4 stimulates GFAP-positive cells in relation to proliferation to form more neuronal stem and progenitor cells. IL-4 thus increases the neuroplasticity of the embedded PHCCs despite the presence of neurotoxic Aβ42. […] IL-4 is thus an important candidate for future therapies against Aβ42-mediated neurodegeneration.

[3] = tested on: primary human cortical cells (PHCCs); test: Aβ42 neurotoxicity model, PHCCs in 3D star-PEG-heparin hydrogel; assay type: cell-based
Description: FIG. 11 contains a graphic depiction of the preparation of the PEG-heparin hydrogel for the investigation of the effect of amyloid β 42 peptides (Aβ42) in primary human cortical cells. Cells of the second passage were placed into a Petri dish in a density of 5×10^3 per cm^2 in step 1. For the purposes of the Aβ42 neurotoxicity model, cells of the second passage were likewise placed in a Petri dish in a density of 5×10^3/cm^2 and incubated for 48 hours with 2 μM Aβ42 (step 1′).
After 48 hours, the cells were harvested and resuspended in phosphate-buffered saline solution (PBS) at a concentration of 8×10^6 cells per ml in a step 2. Then, the same volume of heparin solution (45 μg/μl in PBS) was added and the two were mixed to give a final concentration of 4×10^6 cells/ml in a step 3. In the case of the coating of the extracellular environment of the cells embedded in the PEG-heparin hydrogel system with […], a mixture of Aβ42 peptide in a concentration of 40 μM was added in step 3′.
To cast a gel, the cell solution, PBS and heparin in step 3 were mixed with the same volume of star-PEG. […] The reactions for gel formation last two minutes. After the casting, the gels were placed into 24-well culture plates, with each well containing a culture medium. To culture and to incubate the gels, a ratio of 5% CO2/95% air at 37° C. was used. Gels can be cultured until the desired time point.
Amyloid β 42 peptide, a misfolded protein relevant to Alzheimer's disease, was also used in order to model its toxicity and its effects on neuronal networks. The method according to the invention using a three-dimensional hydrogel system for culturing can, in this way, also be used as a model for neurodegenerative diseases. […] To investigate whether amyloid β 42 (Aβ42) influences the neuronal network, cultures were generated by treating the cells with Aβ42 before introduction into the hydrogel system (intracellular Aβ42) or incubating the hydrogels with Aβ42 before introduction of the cells (extracellular Aβ42). […] Furthermore, the three-dimensional hydrogel system can be used as a practical screening platform for testing compounds which might restore the neurogenic capacity of human stem cells and the formation of neuronal networks even in the presence of Aβ42.
To use gels which were pretreated with amyloid β 42 (Aβ42), the cells were incubated with 2 μM Aβ42 for 48 hours prior to the cell collection from the culture vessel and prior to the embedding of the cells in the hydrogel. To generate a gel environment which contains Aβ42, the cells were first dissolved in 4 μl of 100 μM Aβ42 peptide in PBS. 6 μl of the heparin solution (0.448 mg of HEP-HM6 dissolved in 6 μl of PBS) and 10 μl of the starPEG-MMP solution (0.347 mg of starPEG-MMP dissolved in 10 μl of PBS) were added and, as described above, mixed. In this gel mixture, the concentration of Aβ42 is 20 μM and the concentration of the cells is 2×10^6 cells per ml.
To use gels which were pretreated with amyloid β 42 (Aβ42), the cells were incubated with 2 μM Aβ42 for 48 hours prior to the cell collection from the culture vessel and prior to the embedding of the cells in the hydrogel.
All hydrogels were fixed with ice-cold paraformaldehyde and incubated at room temperature for 1.5 h, followed by a wash in PBS overnight at 4° C. […]
For the hydrogels, fluorescence recordings were carried out using a Leica SP5 inverted confocal and multiphoton microscope. […]

[4] = Aβ42-treated gels compared with control gels

N[C@@H](CCC(=O)O)C(=O)O [glutamate]
fluorescence signal of calcium sensor (intracellular calcium influx) [1]: increased fluorescence signal; also recorded: increase in the intracellular calcium level

Aβ42: Amyloid β 42 peptide, a misfolded protein relevant to Alzheimer's disease
cell count (GFAP-positive and SOX2-positive cells) ([2]; Aβ42-treated cultures vs untreated control, three-week culture): strong decline | number of branches per network [3, 4]: significantly lower | number of cells [3, 4]: significantly reduced | number of networks [3, 4]: significantly reduced | effect on axons ([3]; Aβ42 treatment): dystrophy of axons | neuronal network formation ([3]; intracellular and extracellular Aβ42, compared with control gels): significant impairment

B1: IL-4: interleukin 4 (protein, UniProt P05112 25-153, looked up)
Interleukin-4: HKCDITLQEIIKTLNSLTEQKTLCTELTVTDIFAASKNTTEKETFCRAATVLRQFYSHHEKDTRCLGATAQQFHRHKQLIRFLKRLDRNLWGLAGLNSCPVKEANQSTLENFLERLKTIMREKYSKCSS
proliferation of human neuronal stem cells ([2]; Aβ42 plus 100 ng/ml IL-4): activates the proliferation | cell count ([2]; Aβ42 plus 100 ng/ml IL-4 in the medium, three-week culture): altogether comparable with the control cultures without Aβ42 treatment
